# Test: soluble on expression in E. coli; label from the status in PepcDB or PDB records
row,Sequence,soluble on expression in E. coli
1,MKIVIAPDSFKESLSALEVAEAVERGFRTVFPEAEYVKVPMADGGEGTVRSLVDATGGRIVETEVTGPLGEPVRAFFGLLGDGKTAVIEMAAASGLHLVPRDRRNPLVTTTRGTGELILAALDAGATHLIIGIGGSATNDGGAGMVQALGGRLLDEDGCDIGPGGGALADLHAIDLSGLDPRLGGVRIDVACDVDNPLTGPNGASAIFGPQKGATPDMVAVLDRNLAHYADVIRRDLGKQVGDIPGAGAAGGLGAGLLAFLPAELKRGVEIVIETVQLAERVKDADLVITGEGRIDGQTVFGKTPIGVAKTAKQFGVPVIGIAGSLGDDSAVVLDHGIDALFTIVPGVVPLEKALEQAEHYVTQTARHIASVYRLGQMKGTSSS,not soluble
2,MKIESWKEGDFVNVPGKQAVSLEEFYRMRETTDRILEYIDGAVLMSPSPSTQHQRISGRLHVQLFHFLEGKPCEVFHAPFDIELKNERIEGKKIVVPDLTVICDRSGLTDSKFVGVPTLIIEILSPSNQAYDLVFKLNLYMQYGVGEYWIVNPMHSVVQIYSLNDDGQYEQAGVWKETGMACSRALDGFSVDVEQLFRP,not soluble
3,VIHLDSKNFDSFLASHEIAVVDFWAEWCAPCLILAPIIEELAEDYPQVGFGKLNSDENPDIAARYGVMSLPTVIFFKDGEPVDEIIGAVPREEIEIRIKNLLGE,soluble
4,MDPRGILKAFPKRQKIHADASSKVLAKIPRREEGEEAEEWLSSLRAHVVRTGIGRARAELFEKQIVQHGGQLCPAQGPGVTHIVVDEGMDYERALRLLRLPQLPPGAQLVKSAWLSLCLQERRLVDVAGFSIFIPSRYLDHPQPSKAEQDASIPPGTHEALLQTALSPPPPPTRPVSPPQKAKEAPNTQAQPISDDEASDGEETQVSAADLEALISGHYPTSLEGDCEPSPAPAVLDKWVCAQPSSQKATNHNLHITEKLEVLAKAYSVQGDKWRALGYAKAINALKSFHKPVTSYQEACSIPGIGKRMAEKIIEILESGHLRKLDHISESVPVLELFSNIWGAGTKTAQMWYQQGFRSLEDIRSQASLTTQQAIGLKHYSDFLERMPREEATEIEQTVQKAAQAFNSGLLCVACGSYRRGKATCGDVDVLITHPDGRSHRGIFSRLLDSLRQEGFLTDDLVSQEENGQQQKYLGVCRLPGPGRRHRRLDIIVVPYSEFACALLYFTGSAHFNRSMRALAKTKGMSLSEHALSTAVVRNTHGCKVGPGRVLPTPTEKDVFRLLGLPYREPAERDW,soluble
5,MAHHHHHHMDATPHMHAKTIFMTHWDGLEKDSDARIIVVGATNRRFTIDDAIRRRLPLQLEVPPPDAKAREKILSILLAHDLEYNPKKDGLIRYVALKTAEYTGSDLSELCKAAALMPLREMESMKAGGASSAAPETVPPLTQQHFDKAMERVKASK,soluble
6,MGHHHHHHSHMTLIYVDADNTRNELKATTGSNFTITHRKDPLTTKWKTVFGNNGDQWLCNVTGIGNATVNSNATICVSSCGHNTLDLCNLKSGDSGFFDLSRWFGENMDEYSGDVWHLEVS,soluble
7,MSLLMTLVDEIKNRSSHVDAAIDELLPVTRPEELYKASRYLVDAGGKRLRPAVLILAAEAVGSNLRSVLPAAVAVELVHNFTLIHDDIMDRDDIRRGMPAVHVKWGEAGAILAGDTLYSKAFEILSKVENEPVRVLKCMDVLSKTCTEICEGQWLDMDFETRKKVTESEYLEMVEKKTSVLYAAAAKIGALLGGASDEVAEALSEYGRLIGIGFQMYDDVLDMTAPEEVLGKVRGSDLMEGKYTLIVINAFEKGVKLDIFGKGEATLEETEAAVRTLTECGSLDYVKNLAISYIEEGKEKLDVLRDCPEKTLLLQIADYMISREYEGHHHHHH,soluble
8,MGGFGLKYRPVPIKRVLPGSIAQESDLQEGDLILSINGQKISDIFDYRFLIADENLVLEVQKKNGEIWEIEIEKDEYEDLGIEFENLMIDDTKSCRNKCIFCFIDQLPKGMRETLYFKDDDSRLSFFMGNYVTLTNMSYDDIDRIIKYKMSPINVSVHTSNPELRVYMLRNKTAGDVMDKIKRLIEGGIKVNAQIVLVRGVNDGKELDRTLKDLSALYPGLNSISVVPVGITKYREGLYELKPFDMESSREVIKQVEAWQMELLSKYGSRIVFIADEFYIMAGLEIPDYCVYEDFPQIENGVGLVAMLKKEFDDYFEELELKLENKREVSIATGVSSYKYIKEMIDILENKYKNLYVHVYKIKNNFFGENVTVTGLLTGQDIERQLSGKNLGRELLLSESMLKSGERVFLDDYTVEMLEDKLKTKITIVRNNGKDFIEKVLGIVL,soluble
9,MSEKKAVIGVVTISDRASKGIYEDISGKAIIDYLKDVIITPFEVEYRVIPDERDLIEKTLIELADEKGCSLILTTGGTGPAPRDVTPEATEAVCEKMLPGFGELMRQVSLKQVPTAILSRQTAGIRGSCLIVNLPGKPQSIKVCLDAVMPAIPYCIDLIGGAYIDTDPNKVKAFRPKK,soluble
10,MGSDKIHHHHHHMIDFLDVQKETPRIRIAIDRVGVKNIKFPLKIHDDFAFLTLNLFVDVPADRKGADMSRAVESIQKVINAGSYGERIGDIGIAICDEALSRFNYSEKAQCEVNIQYYRRSGERYLEYRMYVETAKDRKQIMKNEIGISYVTMTACPCAMETTRALISMDNPDISDAISAIPTITHNQRNVTKLTVDNRSKMITVWDLADVMERVQGKPLDSLLKRVEEGRLVYSAHRNPKFVEDVVREIAYEAARVLGVPDEATIKVSSESDESIHPHNAYAEIDTTAGELRKLHLH,not soluble
11,MGHHHHHHSHPPCRPCRYKKYVFLDPLAGAVTKTHVMLGAETEEKLFDAPLSISKREQLEQQVGGAGQRWRQVQWPRALPELLSSQGCWALYSTHGRCTQGLVGCPCRSLSPLTCPCLILQVPENYFYVPDLGQVPEIDVPSYLPDLPGIANDLMYIADLGPGIAPSAPGTIPELPTFHTEVAEPLKTYKMGY,not soluble
12,MGHHHHHHSHMIGPIIDKLEKVAVRGGDKKLKPEYDIMCKVKSWVIDQKKPVRFYHDWNDKEIEVLNKHLFLTSKPMVYLVNLSEKDYIRKKNKWLIKIKEWVDKYDPGALVIPFSGALELKLQELSAEERQKYLEANMTQSALPKIIKAGFAALQLEYFFTAGPDEVRAWTIRKGTKAPQAAGKIHTDFEKGFIMAEVMKYEDFKEEGSENAVKAAGKYRQQGRNYIVEDGDIIFFKFNTPRQPKKK,not soluble
13,MSESAFSNRIVQSLLDTDFYKLTMMQAVLHNYPNVDVEWEFRCRNGEDLRPYLGEIQHQIELLCELSLSPEHLVFLERITFMKPDFLRFLGLFRFNTRYVKTSIENDELCIRLHGPWLHVILFEVPLLAIVSEVRNRHRYPDTLLSQARDRLYDKFEWLTVNATPDELAELKVADFGTRRRFSYRVQEEVLNVLKLDFPGQLVGTSNVHLARQLDLKPLGTMAHEWIMAHQQLGPRLIDSQIAALDCWVREYRGLLGIALTDCITTDAFLNDFDLYFAKLFDGLRHDSGDPVKWAEKCISHYQKLGIDPMSKTLVFSDGLNLPKALDIFRALRGRINVSFGIGTNLTADIPGIAPMNMVLKMTACAGQAVAKISDESGKTQCKDPNFVAYLRHVFKVPDLPSPAKPALEHHHHHH,not soluble
14,MNIWGPHIVQARRAVAIFCRGLLVLMPALSLLGLTAEAEPRSADDRQRIAAVTAPATGFTVAEPFEQLPGGAATVSGDLGRDAFSRPSANMSFERELDFHLGQALFDKLWVASPSSTKASDGLGPLYNARSCQACHIRDGRGQVSGGPGLVLRIGRVRGDGVLPDPLFGLQIQDSAVPGLRPEARIAVSQAETEVTLNGGEVAVLRKPRYRLDAAEGTLHAESTLSPRLAPQMIGLGLLEAIPEAEILARADPDDRDGDGISGRPNRVHDPETGQEALGRFGWKAGAASVLDQTAAAFASDIGISSPLRPAPWGDCTELQVECRAALHGDGDPRGAEIDGPALALTAFYSRNLAVPARRDVDDPDVLRGKRVFYGIGCPACHVPKHVTAQLSDQPEQSFQLIWPYTDLLLHDMGAGLADELPQGLASGREWRTAPLWGIGLTEQVSGQARFLHDGRARTLLEAVLWHGGEAAAQRDRVIALAPEDRAALIRFLESL,not soluble
15,MKRSKRFAVLAQRPVNQDGLIGEWPEEGLIAMDSPFDPVSSVKVDNGLIVELDGKRRDQFDMIDRFIADYAINVERTEQAMRLEAVEIARMLVDIHVSREEIIAITTAITPAKAVEVMAQMNVVEMMMALQKMRARRTPSNQCHVTNLKDNPVQIAADAAEAGIRGFSEQETTVGIARYAPFNALALLVGSQCGRPGVLTQCSVEEATELELGMRGLTSYAETVSVYGTEAVFTDGDDTPWSKAFLASAYASRGLKMRYTSGTGSEALMGYSESKSMLYLESRCIFITKGAGVQGLQNGAVSCIGMTGAVPSGIRAVLAENLIASMLDLEVASANDQTFSHSDIRRTARTLMQMLPGTDFIFSGYSAVPNYDNMFAGSNFDAEDFDDYNILQRDLMVDGGLRPVTEAETIAIRQKAARAIQAVFRELGLPPIADEEVEAATYAHGSNEMPPRNVVEDLSAVEEMMKRNITGLDIVGALSRSGFEDIASNILNMLRQRVTGDYLQTSAILDRQFEVVSAVNDINDYQGPGTGYRISAERWAEIKNIPGVVQPDTIE,soluble
16,MTTKDEVKTLWKLCFNDSDEFTDLYFKMRYKDEVNRVIREDGKIISALQMIPYPMTFCDEVISTSYISGACTHPDYRKHGAMKRLLKETHRCMYEDGVLLASLIPAEEWLFGYYARSGYAPVFGYAVEQVRVDRLCPAPGCRIEVCEFPGVEHYHYFDSRMHGRRSCIQHPKEDFLVIMADLRLGNGKLLVAWEADKIVGMAFTVMGDDTLYIKELLADTDAVQDTLLYEAAHIYKVQRMDYFIPSSADTLFLGMARVIRAEELLKVFAHKYPASELYIHIEGDEAIQENNGYYTVRDGFCFRERVPEKKYHTYTLDGFTRLLLEAEHPYMSLMLN,soluble
17,MSSLKGKRIGFGLTGSHCTYEAVFPQIEELVNEGAEVRPVVTFNVKSTNTRFGEGAEWVKKIEDLTGYEAIDSIVKAEPLGPKLPLDCMVIAPLTGNSMSKLANAMTDSPVLMAAKATIRNNRPVVLGISTNDALGLNGTNLMRLMSTKNIFFIPFGQDDPFKKPNSMVAKMDLLPQTIEKALMHQQLQPILVENYQGNDLEHHHHHH,not soluble
18,AMAISDPEETLMDSTTATAELGWMVHPPSGWEEVSGYDENMNTIRTYQVCNVFESSQNNWLRTKFIRRRGAHRIHVEMKFSVRDCSSIPSVPGSCKETFNLYYYEADFDLATKTFPNWMENPWVKVDTIAADESISQVDLGGRVMKINTEVRSFGPVSRNGFYLAFQDYGGCMSLIAVRVFYRKCPR,soluble
19,MTPNKEDYLKCIYEIGIDLHKITNKEIAARMQVSPPAVTEMIKRMKSENLILKDKECGYLLTDLGLKLVSELYRKHRLIEVFLVHHLDYTSDQIHEEAEVLEHTVSDLFVERLDKLLGFPKTCPHGGTIPAKGELLVEINNLPLADIKEAGAYRLTRVHDSFDILHYLDKHSLHIGDQLQVKQFDGFSNTFTILSNDEDLQVNMDIAKQLYVEKIN,not soluble
20,MTSNKNVKTLDEAIRELTRAKAILDSARPTAVNLVWATSRMLTLAKNAVENGNAKTINELIDLMKVEAKRIFDEEYDAEIQMGLYGLEKLNDSDT,not soluble
21,MGSDKIHHHHHHMRYSPEALIAFVETVSCGSFSAAARRLRKSQSTISIAIAHLEADLGFSLFDRSSRQPVLTEEGKRVLSYVQAILSASDRLDEVALTLSGETEARLTFVLSDTLHPDSLEELMAQFDRQFPHTEFECLIGENDDVIDLLQKGRAQIGLIEARDDYPTDIGAARLPVQSWMGVYVATTHPLASQTNLQWEQLHTWRELRLNTYLDSNANITRGPAWSAPNYLLLLSMAVQGFGWCVLPCALVEEFAAEKPLAQLDVPGWPRAIAIDLLWNKKTPPGTAGNWLRYHLQQK,not soluble

# From the DeepSol protein solubility set
